The values below come from publication PMC48140 (BMC Cell Biology, 2001).

The series deals with the molecule itself. As to the kind of experiment: SDS-PAGE with immunoblot. For orientation: In western blotting, separated proteins are transferred to a membrane and probed.

The term stoichiometry N denotes the number of molecules, sites or subunits per partner or assembly.

B1: MP20, lens fiber cell membrane protein (natural protein, ovine, UniProt A0ACI6P5E9 1-173, looked up)
chain: MYSFMGGGLFCAWVGTILLVVATATDHWMQYRLSGAFAHQGLWRYCLGTKCYLQTESIAYWNATRAFMILSSLCATSGIIMGIVAFAQQPTFTRLSRPFSAGIMFFASTFFVLLALAIYTGVTVSFLGRRFGDWRFSWSYILGWVALLMTFFAGIFYMCAYRMHECRRLSTPR
Take B1: the “stoichiometry N” value stood at 2.
